This is an account of results in the RNAGym collection of RNA variant scans (doi:10.1073/pnas.2313332121).

First the molecules themselves.
B1: TPR 5TU (parent)
chain: GGAUCUUCUCGAUCUAACAAAAAAGACAAAUCUGCCACAAAGCUUGAGAGCAUCUUCGGAUGCAGAGGCGGCAGCCUUCGGUGGCGCGAUAGCGCCAACGUUCUCAACUAUGACACGCAAAACGCGUGCUCCGUUGAAUGGAGUUUAUCAUG

This sample holds only a part of the variants without activity.

The variants in the data set derive from B1. Kind of data set: polymerase ribozyme fitness, log enrichment relative to wild type (log ratio); higher = more active; in vitro selection for triplet polymerase activity. In a few lines:
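Fitness is a logarithmic measure of how a genotype enriched relative to the wild type, with replicate averages weighted by inverse variance. The logarithm uses base 2, and enrichment came from Illumina sequencing of input and output libraries. Those libraries were PCR-built, transcribed mutants of each subunit of a heterodimeric triplet polymerase ribozyme, passed through one triplicate in vitro selection round that included frozen incubation at −7 °C, gel excision of extended constructs and streptavidin-bead capture. Genotypes were kept only if they had ≥10 input reads and ≥1 read per output.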
On to G84A A91U U102G U144A, for which the “polymerase ribozyme fitness (log ratio)” value was not above -4.2. C85U A142C: the “polymerase ribozyme fitness (log ratio)” value is -1.12. G84U U148A: the “polymerase ribozyme fitness (log ratio)” value was not above -4.2. As for A23C C79A C103U A138G G143C, the “polymerase ribozyme fitness (log ratio)” value was not above -4.2. In the case of A60G A66C G94U C108U C125U U139C, the “polymerase ribozyme fitness (log ratio)” value was -4. On to A49C U55G A60U G65A G74C U77A, for which the “polymerase ribozyme fitness (log ratio)” value is not above -4.2. As for C38A C87U A107U, the “polymerase ribozyme fitness (log ratio)” value is -4.17. Regarding A12G G70C A113C U144C A147C, the “polymerase ribozyme fitness (log ratio)” value is not above -4.2. As for A19U G80A, the “polymerase ribozyme fitness (log ratio)” value was -0.164. On to A22C U53A G84C G112A C129A U134G A147C, for which the “polymerase ribozyme fitness (log ratio)” value was not above -4.2. In the case of U77A G88U C103G U151C, the “polymerase ribozyme fitness (log ratio)” value is not above -4.2. As for A49C C93U, the “polymerase ribozyme fitness (log ratio)” value is not above -4.2.

As to A17G A29U G42A C87U G100U A110C A115C A120G U134A, the “polymerase ribozyme fitness (log ratio)” value is not above -4.2. For C114U A122G, the “polymerase ribozyme fitness (log ratio)” value was -1.87. As for C103G C123G G136U, the “polymerase ribozyme fitness (log ratio)” value is -2.77. As for A52U G84C C116U U146G, the “polymerase ribozyme fitness (log ratio)” value was -4.11. For the variant U31A A106G, the “polymerase ribozyme fitness (log ratio)” value turned out to be 0.863. In the case of A28C C57U G84A C96U G124U, the “polymerase ribozyme fitness (log ratio)” value is not above -4.2. On to U55G C118U, for which the “polymerase ribozyme fitness (log ratio)” value is -1.23. On to U61G A91C C93U C114A G126A U135G, for which the “polymerase ribozyme fitness (log ratio)” value is not above -4.2. To A22U G94A belongs -0.557; to A3G G94A, -1.67. For A49U G59A A122U, the “polymerase ribozyme fitness (log ratio)” value is -0.783. With A23U C72U G83A U109A U151G, the “polymerase ribozyme fitness (log ratio)” value was not above -4.2. With G46U C69U C96A A110U A121C, the “polymerase ribozyme fitness (log ratio)” value is not above -4.2.

For C36U A37U A73G A91U C149U G152U, the “polymerase ribozyme fitness (log ratio)” value was not above -4.2.

With A60G U61G C76A G124C C125G, the “polymerase ribozyme fitness (log ratio)” value was not above -4.2.

Regarding U56G G58A C63G U101G A120U, the “polymerase ribozyme fitness (log ratio)” value is -2.56. For G48C G59C G92U C99G A106U, the “polymerase ribozyme fitness (log ratio)” value is not above -4.2.

On to U78G G88U, for which the “polymerase ribozyme fitness (log ratio)” value was not above -4.2.

Take A17U C85A: the “polymerase ribozyme fitness (log ratio)” value is -1.17.

On to A89U C95G, for which the “polymerase ribozyme fitness (log ratio)” value was -1.9. Regarding G59U G86U, the “polymerase ribozyme fitness (log ratio)” value was -3.85. As for A12G A39C G84A A138C G143U U148C, the “polymerase ribozyme fitness (log ratio)” value was not above -4.2. With G50U A107C C132A the figure was not above -4.2; with A40U C57A G58C C79G, -3.81; with U13G G48A C93A C125G, not above -4.2. With A40U G92A A120C the figure was -2.75.

A21U A60G: the “polymerase ribozyme fitness (log ratio)” value is 0.987.

With U31C G92C G126U, the “polymerase ribozyme fitness (log ratio)” value amounted to 0.158.

Consider A89G A110U U151A, for which the “polymerase ribozyme fitness (log ratio)” value is -3.58.

Consider A20C A47U U101A A122U, for which the “polymerase ribozyme fitness (log ratio)” value is -0.358. Take U4C A12U A21G G59A C85G G124U: the “polymerase ribozyme fitness (log ratio)” value is -2.83. Consider C54U U56A G58A C85U C95A, for which the “polymerase ribozyme fitness (log ratio)” value was -1.2. In the case of A17U A26C C38U G83A G124U, the “polymerase ribozyme fitness (log ratio)” value was -3.97. Take A21C U90A G94C: the “polymerase ribozyme fitness (log ratio)” value is not above -4.2. Consider A47U C85A, for which the “polymerase ribozyme fitness (log ratio)” value was -2.21. Turning to C93G U146G, the “polymerase ribozyme fitness (log ratio)” value is -3.41. Regarding C5G C10G A26C C93U A106G G140U, the “polymerase ribozyme fitness (log ratio)” value was not above -4.2. To A52G C79G belongs -3.71. With A60G G71A C75A C93U C118G the figure was not above -4.2; with G92C A138G G140A, not above -4.2; with A17C A22U A37U A60G G71U U78A C93A U104G A122C, not above -4.2. For the variant A52G G83U C96A U101C G124A U145A C149U, the “polymerase ribozyme fitness (log ratio)” value was -2.95.

In the case of A47G U55A C79G C93U, the “polymerase ribozyme fitness (log ratio)” value was not above -4.2. On to C87U U144G, for which the “polymerase ribozyme fitness (log ratio)” value was -0.986. To C32G C36U C69U belongs not above -4.2; to C8G A24U G25U G80A C96G C125A, not above -4.2.

Consider C43U C93G U109G, for which the “polymerase ribozyme fitness (log ratio)” value is not above -4.2.

Regarding G11C U13A A64U G74C C85U C96G U102C, the “polymerase ribozyme fitness (log ratio)” value was not above -4.2. On to C8U C93U C99G, for which the “polymerase ribozyme fitness (log ratio)” value was not above -4.2. For G71U A73U A97G U145G, the “polymerase ribozyme fitness (log ratio)” value is not above -4.2. As for U55A U148C, the “polymerase ribozyme fitness (log ratio)” value is -1.05. For G65A A113G, the “polymerase ribozyme fitness (log ratio)” value was -3.91. In the case of U4C C10A U15G G62C A64U G80A C93A C116A U127G C131U G141U U145A, the “polymerase ribozyme fitness (log ratio)” value was not above -4.2.

C57A G68C C85A U134A U146C: the “polymerase ribozyme fitness (log ratio)” value is not above -4.2.

U55G G84A C118U: the “polymerase ribozyme fitness (log ratio)” value was -0.685. With G11A C85U the figure was -1.56; with C63G A98U C99U, 0.639.

Turning to A12U U53A G141U, the “polymerase ribozyme fitness (log ratio)” value is -1.08. A21G C93A C103U: the “polymerase ribozyme fitness (log ratio)” value is -1.75. Turning to C5A A17U U56A U127A, the “polymerase ribozyme fitness (log ratio)” value is -4.16.

Regarding A24G C35U A89U G92C C125A, the “polymerase ribozyme fitness (log ratio)” value is not above -4.2.

Consider G46A G86C C118U A122U, for which the “polymerase ribozyme fitness (log ratio)” value was -3.45.

As for C14G U55A G84A G141A, the “polymerase ribozyme fitness (log ratio)” value is -3.7. In the case of U4A A16G A37U A91G G124U, the “polymerase ribozyme fitness (log ratio)” value was not above -4.2. On to C54G A89U A147C, for which the “polymerase ribozyme fitness (log ratio)” value was -2.1. With G68C G86U A89U C96A A110U C114U the figure was not above -4.2; with A52G C54A C69A C87G U90C G100U C103A C105G, not above -4.2. Regarding A19C C43U C76A G81C A91G A106U A121C G136U A142G, the “polymerase ribozyme fitness (log ratio)” value was not above -4.2. With A28U G83A C116U U145A, the “polymerase ribozyme fitness (log ratio)” value is not above -4.2.

In the case of A17U C51G G83A U134C, the “polymerase ribozyme fitness (log ratio)” value is -3.2. With A60U C85A the figure was -3.04.
